Test results taken from patent publication US20190169692.

Target: YB-1 protein, P67809
Sequence (P67809 whole entry, looked up): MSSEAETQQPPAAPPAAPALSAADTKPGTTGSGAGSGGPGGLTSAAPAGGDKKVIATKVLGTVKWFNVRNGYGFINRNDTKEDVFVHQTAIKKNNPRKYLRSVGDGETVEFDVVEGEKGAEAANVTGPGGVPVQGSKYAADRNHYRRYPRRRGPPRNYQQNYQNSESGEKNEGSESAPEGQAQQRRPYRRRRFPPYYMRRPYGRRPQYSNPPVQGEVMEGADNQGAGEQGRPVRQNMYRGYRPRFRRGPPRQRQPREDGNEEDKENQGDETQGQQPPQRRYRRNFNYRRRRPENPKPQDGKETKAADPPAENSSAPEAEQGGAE

B1: serine threonine kinase 32C (STK32C) (protein)
chain: MRSGAERRGSSAAASPGSPPPGRARPAGSDAPSALPPPAAGQPRARDSGDVRSQPRPLFQWSKWKKRMGSSMSAATARRPVFDDKEDVNFDHFQILRAIGKGSFGKVCIVQKRDTEKMYAMKYMNKQQCIERDEVRNVFRELEILQEIEHVFLVNLWYSFQDEEDMFMVVDLLLGGDLRYHLQQNVQFSEDTVRLYICEMALALDYLRGQHIIHRDVKPDNILLDERGHAHLTDFNIATIIKDGERATALAGTKPYMAPEIFHSFVNGGTGYSFEVDWWSVGVMAYELLRGWRPYDIHSSNAVESLVQLFSTVSVQYVPTWSKEMVALLRKLLTVNPEHRLSSLQDVQAAPALAGVLWDHLSEKRVEPGFVPNKGRLHCDPTFELEEMILESRPLHKKKKRLAKNKSRDNSRDSSQSENDYLQDCLDAIQQDFVIFNREKLKRSQDLPREPLPAPESRDAAEPVEDEAERSALPMCGPICPSAGSG
- in vitro kinase assay with P32-labeled ATP (YB-1 with serine 165 / serine 167 mutated to alanine as substrate, STK32C as enzyme source): it was confirmed that the serine 167 of the YB-1 substrate protein was phosphorylated by SKT32C
